B1: pep7 (FIG. 4B numbering), thioredoxin prey fusion (designed binder, not shown: large carriers)
chain: MSDKIIHLTDDSFDTDVLKADGAILVDFWAEWCGPQLYAGCYLGVVIASSLSIRVGPCKMIAPILDEIADEYQGKLTVAKLNIDQNPGTAPKYGIRGIPTLLLFKNGEVAATKVGALSKGQLKEFLDANLA
B2: pep12 (FIG. 4B numbering), thioredoxin prey fusion (designed binder, not shown: large carriers)
chain: MSDKIIHLTDDSFDTDVLKADGAILVDFWAEWCGPRPLTGRWVVWGRRHEECGLTGPCKMIAPILDEIADEYQGKLTVAKLNIDQNPGTAPKYGIRGIPTLLLFKNGEVAATKVGALSKGQLKEFLDANLA
B3: Cdk7 (enzyme, not shown: small tags and cut ends)
chain: ALDVKSRAKRYEKLDFLGEGQFATVYKARDKNTNQIVAIKKIKLGHRSEAKDGINRTALREIKLLQELSHPNIIGLLDAFGHKSNISLVFDFMETDLEVIIKDNSLVLTPSHIKAYMLMTLQGLEYLHQHWILHRDLKPNNLLLDENGVLKLADFGLAKSFGSPNRAYTHQVVTRWYRAPELLFGARMYGVGVDMWAVGCILAELLLRVPFLPGDSDLDQLTRIFETLGTPTEEQWPDMCSLPDYVTFKSFPGIPLHHIFSAAGDDLLDLIQGLFLFNPCARITATQALKMKYFSNRPGPTPGCQLPRPNCPVETLKEQSNPALAIKRKRTEALEQGGLPKKLIF
notes: Bait strain named only on the sheet
B4: pep13 (FIG. 4B numbering), thioredoxin prey fusion (designed binder, not shown: large carriers)
chain: MSDKIIHLTDDSFDTDVLKADGAILVDFWAEWCGPPVCCMMYGHRTAPHSVFNVDGPCKMIAPILDEIADEYQGKLTVAKLNIDQNPGTAPKYGIRGIPTLLLFKNGEVAATKVGALSKGQLKEFLDANLA
B5: pep6 (FIG. 4B numbering), thioredoxin prey fusion (designed binder, not shown: large carriers)
chain: MSDKIIHLTDDSFDTDVLKADGAILVDFWAEWCGPRVKLGYSFWAQSLLRCISVGGPCKMIAPILDEIADEYQGKLTVAKLNIDQNPGTAPKYGIRGIPTLLLFKNGEVAATKVGALSKGQLKEFLDANLA
B6: pep14 (FIG. 4B numbering), thioredoxin prey fusion (designed binder, not shown: large carriers)
chain: MSDKIIHLTDDSFDTDVLKADGAILVDFWAEWCGPWSPELLRAMVAFRWLLERRPGPCKMIAPILDEIADEYQGKLTVAKLNIDQNPGTAPKYGIRGIPTLLLFKNGEVAATKVGALSKGQLKEFLDANLA
B7: pep9 (FIG. 4B numbering), thioredoxin prey fusion (designed binder, not shown: large carriers)
chain: MSDKIIHLTDDSFDTDVLKADGAILVDFWAEWCGPQQRFVFSPSWFTCAGTSDFWGPEPLFDWTRDGPCKMIAPILDEIADEYQGKLTVAKLNIDQNPGTAPKYGIRGIPTLLLFKNGEVAATKVGALSKGQLKEFLDANLA

What was measured:
[1] = target: T1, Cdc2 (Homo sapiens (Human), UniProt P06493 1-297); assay: yeast interaction trap mating assay, lacZ reporter on Xgal
T1 construct: bait construct and species not described
T1 sequence (P06493 whole entry): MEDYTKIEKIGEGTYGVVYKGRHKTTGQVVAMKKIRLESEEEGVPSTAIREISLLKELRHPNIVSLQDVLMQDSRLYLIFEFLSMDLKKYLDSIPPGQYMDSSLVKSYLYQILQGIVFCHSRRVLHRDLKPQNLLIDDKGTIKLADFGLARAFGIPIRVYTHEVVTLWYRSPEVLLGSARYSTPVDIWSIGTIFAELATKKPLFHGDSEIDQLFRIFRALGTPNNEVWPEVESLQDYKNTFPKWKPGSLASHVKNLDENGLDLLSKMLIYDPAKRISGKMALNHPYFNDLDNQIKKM

[2] = target: T2, LexA-Cdk3 bait (human, UniProt Q00526 1-305, limits assumed); assay: as above
T2 construct: also called human Cdk3; not shown: bacterial LexA protein
T2 sequence (Q00526 whole entry): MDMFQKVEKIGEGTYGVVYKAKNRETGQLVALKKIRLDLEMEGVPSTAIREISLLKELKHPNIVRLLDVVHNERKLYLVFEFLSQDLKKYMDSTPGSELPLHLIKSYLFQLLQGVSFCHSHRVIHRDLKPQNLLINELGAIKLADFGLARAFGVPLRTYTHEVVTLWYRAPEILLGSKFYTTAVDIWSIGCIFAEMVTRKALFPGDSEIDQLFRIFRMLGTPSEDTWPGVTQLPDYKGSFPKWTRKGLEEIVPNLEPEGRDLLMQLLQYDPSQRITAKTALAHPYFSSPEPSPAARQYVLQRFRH

[3] = target: T3, CDC28 (Saccharomyces cerevisiae (strain ATCC …, UniProt P00546 1-298)); assay: as above
T3 construct: bait construct not described
T3 sequence (P00546 whole entry): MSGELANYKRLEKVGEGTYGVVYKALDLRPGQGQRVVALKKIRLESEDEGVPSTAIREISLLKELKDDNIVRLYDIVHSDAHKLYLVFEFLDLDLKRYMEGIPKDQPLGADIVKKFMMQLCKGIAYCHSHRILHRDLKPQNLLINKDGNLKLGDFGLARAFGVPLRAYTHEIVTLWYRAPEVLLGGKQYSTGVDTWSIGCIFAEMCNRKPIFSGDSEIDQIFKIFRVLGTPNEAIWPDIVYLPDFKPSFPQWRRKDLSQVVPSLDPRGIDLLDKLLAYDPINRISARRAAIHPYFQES

[4] = target: T4, Cdk6; assay: as above
T4 construct: Bait strain named only on the sheet

[5] = target: T5, Drosophila Cdc2c (Drosophila, UniProt P23573 1-314, limits assumed); assay: as above
T5 construct: bait construct not described
T5 sequence (P23573 whole entry): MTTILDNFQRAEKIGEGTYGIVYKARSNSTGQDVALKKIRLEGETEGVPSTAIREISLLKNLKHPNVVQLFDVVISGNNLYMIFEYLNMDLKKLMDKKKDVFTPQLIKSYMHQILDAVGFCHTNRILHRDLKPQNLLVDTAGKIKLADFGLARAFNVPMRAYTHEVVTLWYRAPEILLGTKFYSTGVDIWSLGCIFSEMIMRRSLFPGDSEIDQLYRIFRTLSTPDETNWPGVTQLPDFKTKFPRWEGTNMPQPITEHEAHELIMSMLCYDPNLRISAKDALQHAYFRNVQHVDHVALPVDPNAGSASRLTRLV

[6] = target: B3; assay: as above
[7] = target: T6, Cdk4 (Homo sapiens (Human), UniProt P11802 2-303); assay: as above
T6 construct: construct not described
T6 sequence (P11802 2-303 limits assumed): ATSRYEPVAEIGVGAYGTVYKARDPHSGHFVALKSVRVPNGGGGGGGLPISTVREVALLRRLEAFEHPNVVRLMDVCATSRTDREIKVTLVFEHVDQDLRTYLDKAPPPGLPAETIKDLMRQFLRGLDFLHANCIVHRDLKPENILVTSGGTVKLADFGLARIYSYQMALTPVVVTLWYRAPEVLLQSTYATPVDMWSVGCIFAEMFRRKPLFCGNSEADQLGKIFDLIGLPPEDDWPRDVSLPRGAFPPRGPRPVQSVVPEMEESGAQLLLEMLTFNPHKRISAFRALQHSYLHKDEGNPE

[8] = target: T6, Cdk4; assay: yeast interaction trap mating assay (FIG. 4A)
[9] = target: B6; assay: yeast interaction trap mating assay, lacZ reporter on Xgal
[10] = target: B5; assay: as above
[11] = target: B2; assay: as above
[12] = target: B1; assay: as above
[13] = target: B7; assay: as above
[14] = target: B4; assay: as above
[15] = target: human Cdk2 expressed from a plasmid in cdc28ts yeast (human, UniProt P24941 1-298); assay: cell-based or functional assay

Binder	binding result [1]	binding result [2]	binding result [3]	binding result [4]	binding result [5]	binding result [6]	binding result [7]	binding result [8]	binding result [9]	binding result [10]	binding result [11]	binding result [12]	binding result [13]	binding result [14]	fold decrease in plating efficiency of a Cdk2-dependent cdc28-1N yeast strain at the restrictive temperature [15] [fold]
pep8 (designed binder, not shown: large carriers; small tags and cut ends, peptide loop embedded in the thioredoxin active-site loop between Cys33 and Cys36 (may form a disulfide), The purified His6 form is m43) MSDKIIHLTDDSFDTDVLKADGAILVDFWAEWCGPYSFVHHGFFNFRVSWREMLAGPCKMIAPILDEIADEYQGKLTVAKLNIDQNPGTAPKYGIRGIPTLLLFKNGEVAATKVGALSKGQLKEFLDANLA	no binding	no binding	no binding	no binding	no binding	no binding	no binding	–	–	–	–	–	–	–	–
B1	no binding	no binding	no binding	–	no binding	–	–	no binding	–	–	–	–	–	–	–
B2	no binding	no binding	no binding	–	no binding	–	–	no binding	–	–	–	–	–	–	–
pep2 (designed binder, not shown: small tags and cut ends, Peptide loop sits in the TrxA active-site loop; flanking Cys33 and Cys36 may form a disulfide, the purified His6 form is m40) MSDKIIHLTDDSFDTDVLKADGAILVDFWAEWCGPLVCKSYRLDWEAGALFRSLFGPCKMIAPILDEIADEYQGKLTVAKLNIDQNPGTAPKYGIRGIPTLLLFKNGEVAATKVGALSKGQLKEFLDANLA	no binding	no binding	no binding	no binding	no binding	no binding	no binding	–	–	–	–	–	–	–	–
B3	–	–	–	–	–	–	–	–	no binding	no binding	no binding	no binding	no binding	no binding	–
peptide 13 (FIG. 3A/3B numbering), thioredoxin prey fusion (designed binder, not shown: large carriers; small tags and cut ends, peptide loop embedded in the thioredoxin active-site loop between Cys33 and Cys36 (may form a disulfide)) MSDKIIHLTDDSFDTDVLKADGAILVDFWAEWCGPSVRMRYGIDAFFDLGGLLHGGPCKMIAPILDEIADEYQGKLTVAKLNIDQNPGTAPKYGIRGIPTLLLFKNGEVAATKVGALSKGQLKEFLDANLA	–	–	–	–	–	–	–	–	–	–	–	–	–	–	10
pep5 (designed binder, not shown: large carriers; small tags and cut ends, peptide loop embedded in the thioredoxin active-site loop between Cys33 and Cys36 (may form a disulfide), the purified His6 form is m42) MSDKIIHLTDDSFDTDVLKADGAILVDFWAEWCGPSVRMRYGIDAFFDLGGLLHGGPCKMIAPILDEIADEYQGKLTVAKLNIDQNPGTAPKYGIRGIPTLLLFKNGEVAATKVGALSKGQLKEFLDANLA	no binding	binds	no binding	no binding	no binding	no binding	no binding	–	–	–	–	–	–	–	–
B4	no binding	no binding	no binding	–	no binding	–	–	no binding	–	–	–	–	–	–	–
B5	no binding	no binding	no binding	–	no binding	–	–	no binding	–	–	–	–	–	–	–
B6	no binding	no binding	no binding	–	no binding	–	–	no binding	–	–	–	–	–	–	–
B7	no binding	no binding	no binding	–	no binding	–	–	no binding	–	–	–	–	–	–	–
pep11 (designed binder, not shown: small tags and cut ends, Peptide loop sits in the TrxA active-site loop; flanking Cys33 and Cys36 may form a disulfide, The purified His6 form is m45) MSDKIIHLTDDSFDTDVLKADGAILVDFWAEWCGPWRRMELDAEIRWVKPISPLEGPCKMIAPILDEIADEYQGKLTVAKLNIDQNPGTAPKYGIRGIPTLLLFKNGEVAATKVGALSKGQLKEFLDANLA	no binding	no binding	no binding	no binding	no binding	no binding	no binding	–	–	–	–	–	–	–	–
pep10 (designed binder, not shown: small tags and cut ends, Peptide loop sits in the TrxA active-site loop; flanking Cys33 and Cys36 may form a disulfide, The purified His6 form is m44) MSDKIIHLTDDSFDTDVLKADGAILVDFWAEWCGPQVWSLWALGWRWLRRYGWNMGPCKMIAPILDEIADEYQGKLTVAKLNIDQNPGTAPKYGIRGIPTLLLFKNGEVAATKVGALSKGQLKEFLDANLA	no binding	no binding	no binding	no binding	no binding	no binding	no binding	–	–	–	–	–	–	–	–

From patent US20090130676A1 (GENERAL HOSPITAL, published 2009)
